Consider one molecule from patent US20190153089A1.

The test concerns the target the two scFvs (17-21-A01-sc01 and 17-21-A01-sc03). Nature of the test: competition ELISA: IC50 of TNFβ relative to IC50 of TNFα on coated scFv. Background: In an ELISA, binding on a coated surface is turned into a signal by an enzyme label.

B1: recombinant human TNFβ (Peprotech, Cat. No. 300-01B) (ligand, UniProt P01374 35-205, looked up)
chain: LPGVGLTPSAAQTARQHPKMHLAHSTLKPAAHLIGDPSKQNSLLWRANTDRAFLQDGFSLSNNSLLVPTSGIYFVYSQVVFSGKAYSPKATSSPLYLAHEVQLFSSQYPFHVPLLSSQKMVYPGLQEPWLHSMYHGAAFQLTQGDQLSTHTDGIPHLVLSPSTVFFGAFAL
As for B1, the selectivity for binding to TNFα over TNFβ was > 20000 fold.
